One series has as its target SARS-CoV-2 N CTD (SARS-CoV-2, UniProt P0DTC9 247-364). Put plainly: MST. As to conditions: protein: recombinant; tags: 6xHis; chain copies: 2; label: 5'-Cy5.
In the next series the target is SARS-CoV-2 N NTD (SARS-CoV-2, UniProt P0DTC9 44-180). Put plainly: MST; 20 nM RNA; no suramin; apparent Kd. As to conditions: protein: recombinant; tags: 6xHis; label: 5'-Cy5.

Consider one molecule from PMC10514558, “Suramin inhibits SARS-CoV-2 nucleocapsid phosphoprotein genome packaging function”.

AUUAAAG (ssRNA) [Cy5-ssRNA 7-mer]: the results for the Kd in the series with SARS-CoV-2 N CTD and with SARS-CoV-2 N NTD were 5.3 ± 0.2 µM and 30.6 ± 4.9 µM, respectively.
